# Variants at the floor of the assay were thinned out.
# Columns and labels:
# biotinyl-Phe-oxazolone = test: self-aminoacylation, catalytic enhancement (BFO) (fold over background); higher = more active; k-Seq, kA / k0A0; sequences stand for … in GGGAAUGGAUCCACAUCUACGAAUUC…UUCACUGCAGACUUGACGAAGCUG
# How it was run: (§1)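 Catalytic enhancement equals the median kA over the uncatalyzed rate, the latter read from the low-activity peak of a bimodal Gaussian fit. Values of kA came from fitting each sequence's fraction reacted to a pseudo-first-order model, with 1000 bootstraps. Reacted RNA was captured with streptavidin and quantified by triplicate qPCR and Illumina sequencing after 90 minutes at room temperature with 2–1250 μM biotinyl-aminoacyl-oxazolone and 0.43 μM mutagenized RNA pools bearing a 21-nt variable region.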
# biotinyl-Val-oxazolone = test: self-aminoacylation, catalytic enhancement (BVO) (fold over background); higher = more active; k-Seq, kA / k0A0; sequences stand for … in GGGAAUGGAUCCACAUCUACGAAUUC…UUCACUGCAGACUUGACGAAGCUG
# How it was run: as §1
# biotinyl-Trp-oxazolone = test: self-aminoacylation, catalytic enhancement (BWO) (fold over background); higher = more active; k-Seq, kA / k0A0; sequences stand for … in GGGAAUGGAUCCACAUCUACGAAUUC…UUCACUGCAGACUUGACGAAGCUG
# How it was run: as §1
# biotinyl-Leu-oxazolone = test: self-aminoacylation, catalytic enhancement (BLO) (fold over background); higher = more active; k-Seq, kA / k0A0; sequences stand for … in GGGAAUGGAUCCACAUCUACGAAUUC…UUCACUGCAGACUUGACGAAGCUG
# How it was run: as §1
# biotinyl-Ile-oxazolone = test: self-aminoacylation, catalytic enhancement (BIO) (fold over background); higher = more active; k-Seq, kA / k0A0; sequences stand for … in GGGAAUGGAUCCACAUCUACGAAUUC…UUCACUGCAGACUUGACGAAGCUG
# How it was run: as §1
# biotinyl-Met-oxazolone = test: self-aminoacylation, catalytic enhancement (BMO) (fold over background); higher = more active; k-Seq, kA / k0A0; sequences stand for … in GGGAAUGGAUCCACAUCUACGAAUUC…UUCACUGCAGACUUGACGAAGCUG
# How it was run: as §1
Sequence,self-aminoacylation (biotinyl-Phe-oxazolone),self-aminoacylation (biotinyl-Val-oxazolone),self-aminoacylation (biotinyl-Trp-oxazolone),self-aminoacylation (biotinyl-Leu-oxazolone),self-aminoacylation (biotinyl-Ile-oxazolone),self-aminoacylation (biotinyl-Met-oxazolone)
AUUCACCUAGGCCAACGGGUG [Fam2.2 aminoacylation ribozyme variant],14.5,2.04,3.02,4.01,2.23,2.61
AUUACCCUGGUCAUUGAGCGA [Fam2.1 aminoacylation ribozyme variant],4.43,1.41,1.66,1.44,1.45,1.16
CGACACUACAAGCAAUCGGUC [Fam1B.1 aminoacylation ribozyme variant],0.638,1,0.675,0.755,0.935,0.769
AUUCACCUAGGUCGUCGCGUG [Fam2.2 aminoacylation ribozyme variant],39,3.84,5.27,7.92,3.52,5.72
AUUAUCCUGGCCAUCGAGUGA [Fam2.1 aminoacylation ribozyme variant],13.8,1.69,2.77,2.98,1.92,2.99
AUUCACCAAGGACAUCGGGUG [Fam2.2 aminoacylation ribozyme variant],30,3.27,4.17,4.96,3.2,4.65
AUUACCCUAGUCAACGAGUGA [Fam2.1 aminoacylation ribozyme variant],25.6,3.26,6.9,5.35,3.09,5.11
AUUAGCCUGGUCAUCGACUGA [Fam2.1 aminoacylation ribozyme variant],1.59,1.04,0.565,1.13,1.22,1.21
AUUCCCCUAGGUCAACGGGUG [Fam2.2 aminoacylation ribozyme variant],84.2,6.99,11.5,15.4,6.94,11.5
AUGCACCAAGGUCAUCGGGUG [Fam2.2 aminoacylation ribozyme variant],59.9,5.23,9.96,9.2,4.95,7.84
AUUUCCUUGGUCAUCGAGUGA [Fam2.1 aminoacylation ribozyme variant],43.8,4.63,11.1,8.92,4.35,8.2
AUUAUCCUGGUCAUCAAGUGA [Fam2.1 aminoacylation ribozyme variant],10.1,2.2,4.39,3.5,2.3,3.84
CCACAUUUGAAGCAAUCGGUC [Fam1B.1 aminoacylation ribozyme variant],1.09,1.31,0.886,1.17,1.28,1.04
AAGUAUGCUGAUAGUCGCAAG [Fam3.1 aminoacylation ribozyme variant],1.92,1.65,1.96,1.91,1.84,1.94
AUUCGCCUAGGUCACCGGGUG [Fam2.2 aminoacylation ribozyme variant],49,4.27,5.18,8.04,4.4,5.69
AACUUUGCUAAUAGUCGCAUG [Fam3.1 aminoacylation ribozyme variant],2.98,1.89,2.85,2.79,2.77,2.35
AAGAUUGCUAAUAGUCCCAAG [Fam3.1 aminoacylation ribozyme variant],2.39,0.756,0.756,0.778,1.28,0.597
CCACACUUCAGGCAACCGGUC [Fam1B.1 aminoacylation ribozyme variant],1.64,1.95,1.27,1.38,1.89,1.61
CCUCAAUUCAAGCAAUCGGUC [Fam1B.1 aminoacylation ribozyme variant],6.19,0.943,3.57,1.04,1.07,0.916
UUUCACCUACGUCAUCGGGUG [Fam2.2 aminoacylation ribozyme variant],31.6,3.3,4.58,5.75,2.88,4.85
AUUCACAUAGGUCAUCGGAUG [Fam2.2 aminoacylation ribozyme variant],0.549,0.857,0.403,0.649,0.903,0.698

Sequence,self-aminoacylation (biotinyl-Phe-oxazolone),self-aminoacylation (biotinyl-Val-oxazolone),self-aminoacylation (biotinyl-Trp-oxazolone),self-aminoacylation (biotinyl-Leu-oxazolone),self-aminoacylation (biotinyl-Ile-oxazolone),self-aminoacylation (biotinyl-Met-oxazolone)
AUUCAACUAGGUCAUCGAGUG [Fam2.2 aminoacylation ribozyme variant],2.85,1.45,1.84,3.13,1.55,2.2
AUUCACCUUGGUCAUCAGGUG [Fam2.2 aminoacylation ribozyme variant],7.28,1.39,2.15,2.49,1.7,1.9
CCAUACAUCAAGCAAUCGGUC [Fam1B.1 aminoacylation ribozyme variant],1.06,0.981,0.687,0.841,1.04,0.792
GAGUUUGCUAAUAGUCACAAG [Fam3.1 aminoacylation ribozyme variant],11.7,1.48,4.25,1.36,1.84,1.62
CAGUUUGCUAAUAGUCGCACG [Fam3.1 aminoacylation ribozyme variant],1.25,1.05,1.46,1.35,1.3,1.1
CCACACAGCAAGCAAUCGGUC [Fam1B.1 aminoacylation ribozyme variant],1.35,1.11,0.608,0.787,0.864,0.699
AUUACCUUGGUCAUCGAGUGA [Fam2.1 aminoacylation ribozyme variant],7.72,3.88,8.16,6.89,3.7,6.66
AAGUUUGCUAAUGGUCGAAAG [Fam3.1 aminoacylation ribozyme variant],1.03,0.897,0.713,0.591,0.687,0.723
ACACACUUCAAGCAAUCGGUU [Fam1B.1 aminoacylation ribozyme variant],4.53,2.05,4.24,2.26,2.21,2.44
CCACACCUCAAGCAAGCGGUC [Fam1B.1 aminoacylation ribozyme variant],1.27,1.21,1.32,0.921,1.34,1.02
CCACACAUCUAGCAAUCGGUC [Fam1B.1 aminoacylation ribozyme variant],0.911,0.93,0.615,0.712,0.894,0.797
AUUCACCUAGGUAAUCGCGUG [Fam2.2 aminoacylation ribozyme variant],16.1,2.15,2.74,2.8,1.75,2.51
AUUCGCCUAGGACAUCGGGUG [Fam2.2 aminoacylation ribozyme variant],19.1,3.02,3.67,4.25,2.29,3.03
AAGUUUGCUAAUAGACGCACG [Fam3.1 aminoacylation ribozyme variant],0.811,0.528,0.572,0.365,0.543,0.472
UCACACUUCGAGCAAUCGGUC [Fam1B.1 aminoacylation ribozyme variant],1.23,1.05,1.12,0.931,0.91,0.953
CGACACUUCAACCAAUCGGUC [Fam1B.1 aminoacylation ribozyme variant],18.2,1.6,13.4,1.65,1.38,1.61
CUACUUCAUACAAUCGAUCUG [Fam1A.1 aminoacylation ribozyme variant],0.752,0.806,0.601,0.505,0.657,0.653
AAAUUUGCUAAUAGUCGCGAG [Fam3.1 aminoacylation ribozyme variant],1.34,1.76,2.48,2.53,2.12,2.44
AUCACCCAGGUCAUCGAGUGA [Fam2.1 aminoacylation ribozyme variant],30.4,4.61,8.46,8.69,4.04,7.75
CUUAUUCAAACAAUCGGUCUG [Fam1A.1 aminoacylation ribozyme variant],7.03,0.688,3.34,0.679,0.702,0.713
CUAGUUAAAACAAUCGGUCUG [Fam1A.1 aminoacylation ribozyme variant],0.675,0.679,0.622,0.801,0.795,0.958

# — the supplement of paper PMC9233669
